This passage reports Km and kcat results from article PMC11187625, “New Labeled PET Analogues Enable the Functional Screening and Characterization of PET-Degrading Enzymes” (ACS Sustainable Chemistry & Engineering, 2024).

Holding throughout (test): fluorescence, 4-mU release
Holding throughout (settings): 0.1 M phosphate pH 7, 30 °C, 5% DMSO

Substrate in series [1]: CCOCCOC(=O)c1ccc(C(=O)Oc2ccc3c(C)cc(=O)oc3c2)cc1
In kind it is biochemical, Pseudideonella sakaiensis. From the text:
(§1) fluorescence, 4-mU release on IsPETase

Substrate in series [2]: COC(=O)c1ccc(C(=O)Oc2ccc3c(C)cc(=O)oc3c2)cc1
In kind it is biochemical, Pseudideonella sakaiensis.
Text: as §1

Substrate in series [3]: COC(=O)c1ccc(C(=O)OCCOC(=O)c2ccc(C(=O)Oc3ccc4c(C)cc(=O)oc4c3)cc2)cc1
In kind it is biochemical, Pseudideonella sakaiensis.
Text: as §1

Substrate in series [4]: CCOCCOC(=O)c1ccc(C(=O)Oc2ccc3c(C)cc(=O)oc3c2)cc1
It is filed as biochemical, Thermothelomyces thermophilus. From the text:
(§2) fluorescence, 4-mU release on StGE2 (glucuronoyl esterase)

Substrate in series [5]: COC(=O)c1ccc(C(=O)Oc2ccc3c(C)cc(=O)oc3c2)cc1
It is filed as biochemical, Thermothelomyces thermophilus.
Text: as §2

Substrate in series [6]: CCOCCOC(=O)c1ccc(C(=O)Oc2ccc3c(C)cc(=O)oc3c2)cc1
It is filed as biochemical, unidentified prokaryotic organism. From the text: (§3) fluorescence, 4-mU release on LCC^ICCG (leaf-branch compost cutinase ICCG variant)

Substrate in series [7]: COC(=O)c1ccc(C(=O)Oc2ccc3c(C)cc(=O)oc3c2)cc1
It is filed as biochemical, unidentified prokaryotic organism.
Text: as §3

Substrate in series [8]: COC(=O)c1ccc(C(=O)OCCOC(=O)c2ccc(C(=O)Oc3ccc4c(C)cc(=O)oc4c3)cc2)cc1
It is filed as biochemical, unidentified prokaryotic organism.
Text: as §3

B1: IsPETase (Pseudideonella sakaiensis) (protein)
chain: QTNPYARGPNPTAASLEASAGPFTVRSFTVSRPSGYGAGTVYYPTNAGGTVGAIAIVPGYTARQSSIKWWGPRLASHGFVVITIDTNSTLDQPSSRSSQQMAALRQVASLNGTSSSPIYGKVDTARMGVMGWSMGGGGSLISAANNPSLKAAAPQAPWDSSTNFSSVTVPTLIFACENDSIAPVNSSALPIYDSMSRNAKQFLEINGGSHSCANSGNSNQALIGKKGVAWMKRFMDNDTRYSTFACENPNSTRVSDFRTANCS
notes: recombinant, pET-22b(+), E. coli BL21, intracellular fraction, purified
As to B1, the results for the Km in series [1], in series [2] and in series [3] were 9.3 ± 0.8 µM, 6.7 ± 0.6 µM and 34.1 ± 5.5 µM, respectively. Besides, the values for the kcat in series [1] and in series [2] were 3.8e-05 ± 1e-06 s⁻¹ and 5e-05 ± 2e-06 s⁻¹, respectively.

B2: StGE2 (glucuronoyl esterase) (Thermothelomyces thermophilus ATCC 42464) (protein)
chain: APMNHIFERQDTCSVSDNYPTVNSAKLPDPFTTASGEKVTTKDQFECRRAEINKILQQYELGEYPGPPDSVEASLSGNSITVRVTVGSKSISFSASIRKPSGAGPFPAIIGIGGASIPIPSNVATITFNNDEFGAQMGSGSRGQGKFYDLFGRDHSAGSLTAWAWGVDRLIDGLEQVGAQASGIDTKRLGVTGCSRNGKGAFITGALVDRIALTIPQESGAGGAACWRISDQQKAAGANIQTAAQIITENPWFSRNFDPHVNSITSVPQDHHLLAALIVPRGLAVFENNIDWLGPVSTTGCMAAGRLIYKAYGVPNNMGFSLVGGHNHCQFPSSQNQDLNSYINYFLLGQGSPSGVEHSDVNVNVAEWAPWGAGAPTLA
notes: recombinant, expressed in Komagataella phaffii (Pichia pastoris), purified
With B2, the Km – broadly, the substrate concentration at which the rate is half of its maximum – in series [4] amounted to 4.7 ± 0.4 µM; in series [5], 0.7 ± 0.1 µM.

B3: LCC^ICCG (leaf-branch compost cutinase ICCG variant) (unidentified prokaryotic organism; D238C/F243I/S283C/Y127G) (protein)
chain: QSNPYQRGPNPTRSALTADGPFSVATYTVSRLSVSGFGGGVIYYPTGTSLTFGGIAMSPGYTADASSLAWLGRRLASHGFVVLVINTNSRFDGPDSRASQLSAALNYLRTSSPSAVRARLDANRLAVAGHSMGGGGTLRIAEQNPSLKAAVPLTPWHTDKTFNTSVPVLIVGAEADTVAPVSQHAIPFYQNLPSTTPKVYVELCNASHIAPNSNNAAISVYTISWMKLWVDNDTRYRQFLCNVNDPALCDFRTNNRHCQ
notes: recombinant engineered variant ICCG, pET-22b(+), E. coli BL21, intracellular fraction, purified
Turning to B3, the Km in series [6] turned out to be 7.2 ± 0.7 µM; in series [7] it was 1.6 ± 0.1 µM; in series [8] it was 21.7 ± 2.8 µM. Besides, the results for the kcat in series [6], in series [7] and in series [8] were 5.8e-05 ± 2e-06 s⁻¹, 3.4e-05 ± 1e-06 s⁻¹ and 1.3e-05 ± 1e-06 s⁻¹, respectively.
